Consider five substances from paper PMC3412936.

Assay in all cases: ITC
Background: ITC needs no label: the signal is the heat of the interaction.

The target of experiment [1] is WW1 domain (residues 16-50) of human WWOX (human) (UniProt Q9NZC7).
Experiment [2] deals with WW2_Y85W mutant of the WW2 domain of WWOX (human) (UniProt Q9NZC7).
The target in experiment [3] is WW1_R25A mutant of the WW1 domain of WWOX (human) (UniProt Q9NZC7).
Experiment [4] deals with engineered WW2_RW domain of WWOX (E66R/Y85W double-mutant of WW2 domain) (human) (UniProt Q9NZC7).
Experiment [5] deals with WW1_W44Y mutant of the WW1 domain of WWOX (human) (UniProt Q9NZC7).
The target of experiment [6] is WW1-WW2 tandem domains (residues 16-91) of human WWOX (human) (UniProt Q9NZC7).
The target of experiment [7] is WW2_E66R mutant of the WW2 domain of WWOX (human) (UniProt Q9NZC7).
The target of experiment [8] is WW1_R25E mutant of the WW1 domain of WWOX (human) (UniProt Q9NZC7).
For experiment [9], the target named is engineered WW1-WW2rw tandem domains of WWOX (human) (UniProt Q9NZC7).
Experiment [10] has as its target WW2 domain (residues 57-91) of human WWOX (human) (UniProt Q9NZC7).

Sequence of WW1-WW2 tandem domains (residues 16-91) of human WWOX (human) (Q9NZC7 16-91): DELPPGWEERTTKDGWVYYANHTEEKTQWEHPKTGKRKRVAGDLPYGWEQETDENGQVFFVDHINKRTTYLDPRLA
Sequence of WW1 domain (residues 16-50) of human WWOX (human) (Q9NZC7 16-50): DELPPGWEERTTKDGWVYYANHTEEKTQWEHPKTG
Sequence of engineered WW2_RW domain of WWOX (E66R/Y85W double-mutant of WW2 domain) (human) (Q9NZC7 57-91 E66R/Y85W): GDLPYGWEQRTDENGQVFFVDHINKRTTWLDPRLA
Sequence of engineered WW1-WW2rw tandem domains of WWOX (human) (Q9NZC7 16-91 E66R/Y85W): as the sequence (Q9NZC7 16-91) above, with E51R, Y70W counted along it
Sequence of WW2_Y85W mutant of the WW2 domain of WWOX (human) (Q9NZC7 57-91 Y85W): as the sequence (Q9NZC7 57-91 E66R/Y85W) above, with R10E counted along it
Sequence of WW1_W44Y mutant of the WW1 domain of WWOX (human) (Q9NZC7 16-50 W44Y): as the sequence (Q9NZC7 16-50) above, with W29Y counted along it
Sequence of WW2 domain (residues 57-91) of human WWOX (human) (Q9NZC7 57-91): as the sequence (Q9NZC7 57-91 E66R/Y85W) above, with R10E, W29Y counted along it
Sequence of WW1_R25A mutant of the WW1 domain of WWOX (human) (Q9NZC7 16-50 R25A): as the sequence (Q9NZC7 16-50) above, with R10A counted along it
Sequence of WW1_R25E mutant of the WW1 domain of WWOX (human) (Q9NZC7 16-50 R25E): as the sequence (Q9NZC7 16-50) above, with R10E counted along it
Sequence of WW2_E66R mutant of the WW2 domain of WWOX (human) (Q9NZC7 57-91 E66R): as the sequence (Q9NZC7 57-91 E66R/Y85W) above, with W29Y counted along it

What is called Kd is the constant that tells how readily two partners part at equilibrium. Low values mean tighter binding, high ones weaker binding. In experiment [1], “PY3_P-2A alanine mutant of the WBP2_PY3 peptide” showed a Kd of 250 µM and a dH of -18 kcal/mol.

In [1], “PY3_Q-3A alanine mutant of the WBP2_PY3 peptide” came in with a dissociation constant Kd of 149 µM and a dH of -12.4 kcal/mol.

For “PY3_Y+3A alanine mutant of the WBP2_PY3 peptide”, in experiment [1], the equilibrium dissociation constant (Kd) is 554 µM and the dH is -4.95 kcal/mol.

Usually stoichiometry N stands for a count of units in the complex or per binding partner. As to “WBP2_PY3 peptide (12-mer spanning the PY3 PPXY motif of human WBP2)”, the Kd is greater than 1000 µM in experiment [2]; greater than 1000 µM in experiment [3]; 91 µM in [4]; greater than 1000 µM in experiment [5]; 49 µM in [6]; greater than 1000 µM in experiment [7]. Also, the Kd is greater than 1000 µM in experiment [8], 59 µM in [9], 122 µM in [1] and greater than 1000 µM in experiment [10]. In addition, the dH in [4] is -5.2 kcal/mol; in experiment [6] it was -8.46 kcal/mol; in experiment [9] it was -8.02 kcal/mol; in [1], -12.6 kcal/mol. The stoichiometry N in experiment [6] was determined as 1.05.

“PY3_Y+4A alanine mutant of the WBP2_PY3 peptide”: in [1], the Kd is 229 µM and the dH was -8.35 kcal/mol.
